Columns and labels:
[1] = biological target: T1, human P-selectin (human, UniProt P16109 42-771, limits assumed); assay: ELISA binding assay on human P-selectin, OD 450
T1 construct: also called human P-selectin antigen
T1 sequence (looked up): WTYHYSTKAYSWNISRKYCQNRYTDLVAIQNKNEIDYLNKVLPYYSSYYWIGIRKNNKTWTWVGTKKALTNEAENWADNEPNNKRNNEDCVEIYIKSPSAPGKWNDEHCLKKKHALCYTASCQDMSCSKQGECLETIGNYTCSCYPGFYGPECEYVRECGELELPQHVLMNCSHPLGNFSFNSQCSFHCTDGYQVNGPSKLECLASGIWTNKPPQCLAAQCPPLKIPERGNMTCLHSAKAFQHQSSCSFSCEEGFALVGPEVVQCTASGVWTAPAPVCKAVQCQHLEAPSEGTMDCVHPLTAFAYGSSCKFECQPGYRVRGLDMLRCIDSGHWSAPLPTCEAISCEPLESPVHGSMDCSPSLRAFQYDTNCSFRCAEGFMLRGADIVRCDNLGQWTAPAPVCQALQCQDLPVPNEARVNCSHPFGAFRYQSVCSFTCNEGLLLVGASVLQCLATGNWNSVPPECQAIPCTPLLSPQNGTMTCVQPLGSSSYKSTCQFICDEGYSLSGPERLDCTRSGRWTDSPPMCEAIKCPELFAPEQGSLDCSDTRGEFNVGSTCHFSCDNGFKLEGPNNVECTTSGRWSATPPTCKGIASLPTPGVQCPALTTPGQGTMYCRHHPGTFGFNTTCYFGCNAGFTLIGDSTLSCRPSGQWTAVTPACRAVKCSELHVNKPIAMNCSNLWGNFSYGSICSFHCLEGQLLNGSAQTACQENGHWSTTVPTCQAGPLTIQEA
Protocol: To evaluate the ability of B.PselscFv-Crry and NB.PselscFv-Crry to inhibit complement activation, a zymosan A bead assay was performed. Briefly, flow cytometric analysis of C3 deposition on zymosan A particles (SigmaAldrich) was performed and the extent of complement inhibition was normalized by the subtraction of post-IRI complement deposition levels from their baseline levels. Both B.PSelscFv-Crry and NB.PSelscFv-Crry constructs inhibit complement activation in a dose-dependent manner (FIG. 21A). Further, to evaluate the binding of B.PselscFv-Crry and NB.PselscFv-Crry to human P-selectin, an ELISA was performed. Briefly, non-blocking and blocking fusion proteins (NB.PselscFv-Crry and B.PselscFv-Crry, respectively) were plated at varying doses in addition to varying doses of C2-Crry as a negative control.

[2] = biological target: T2, P-Selectin-His tag (mouse) (mouse, UniProt Q01102 42-709, limits assumed); assay: SPRi (PlexArray HT), mouse P-Selectin-His printed on chip, fusion protein as analyte, 25 C
T2 construct: also called mouse P-selectin; mouse antigen P-Selectin; not shown: His tag
T2 sequence (looked up): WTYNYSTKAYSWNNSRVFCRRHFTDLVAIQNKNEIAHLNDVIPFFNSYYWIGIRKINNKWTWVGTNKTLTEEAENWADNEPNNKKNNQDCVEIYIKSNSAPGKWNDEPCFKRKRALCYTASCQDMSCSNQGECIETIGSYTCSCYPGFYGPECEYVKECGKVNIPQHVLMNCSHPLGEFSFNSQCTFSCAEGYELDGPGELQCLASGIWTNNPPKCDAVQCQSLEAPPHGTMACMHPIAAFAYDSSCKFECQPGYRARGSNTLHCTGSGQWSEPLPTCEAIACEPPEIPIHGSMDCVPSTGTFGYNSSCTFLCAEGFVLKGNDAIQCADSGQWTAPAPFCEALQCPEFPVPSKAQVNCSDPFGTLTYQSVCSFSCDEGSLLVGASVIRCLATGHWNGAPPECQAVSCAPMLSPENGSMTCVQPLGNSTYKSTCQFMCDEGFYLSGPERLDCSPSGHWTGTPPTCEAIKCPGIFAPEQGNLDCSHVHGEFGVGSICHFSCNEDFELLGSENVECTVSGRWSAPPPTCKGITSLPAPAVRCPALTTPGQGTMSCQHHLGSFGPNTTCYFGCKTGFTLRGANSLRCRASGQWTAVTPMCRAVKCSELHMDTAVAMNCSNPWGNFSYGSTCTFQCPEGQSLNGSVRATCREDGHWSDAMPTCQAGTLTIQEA
Protocol: FIG. 20A through FIG. 20C depict a representative experimental evaluation of the binding affinity of mouse antigen P-Selectin to B.PselscFv-Crry and NB.PselscFv-Crry. SPR binding assays were performed to measure binding affinity KD and kinetic parameters ka, kd of B.PselscFv-Crry and NB.PselscFv-Crry. The ligand is P-Selectin-His tag (mouse) which was printed onto the chip. The analytes are B.PselscFv-Crry and NB.PselscFv-Crry. After data collection with SPR and kinetics fitting and analysis, the KD, ka, and kd were calculated. FIG. 20A depicts exemplary kinetics fitting curves of P-Selectin to B.PselscFv-Crry. FIG. 20B depicts exemplary kinetics fitting curves of P-Selectin to NB.PselscFv-Crry.
To measure binding affinity, surface plasmon resonance was used with mouse P-selectin as the immobilized ligand and B.PselscFv-Crry (FIG. 20A) and NB.PselscFv-Crry (FIG. 20B) as the analytes. Various concentrations of P-Selectin dissolved in water were manually printed onto the bare gold-coated (thickness 47 nm) PlexArray Nanocapture Sensor Chip (Plexera Bioscience, Seattle, WA, US) at 40% humidity. Each concentration was printed in replicate, and each spot contained 0.2 μL of sample solution. The chip was incubated in 80% humidity at 4° C. for overnight, and rinsed with 10×PBST for 10 min, 1×PBST for 10 min, and deionized water twice for 10 min. The chip was then blocked with 5% (w/v) non-fat milk in water overnight, and washed with 10×PBST for 10 min, 1×PBST for 10 min, and deionized water twice for 10 min before being dried under a stream of nitrogen prior to use. SPRi measurements were performed with PlexAray HT (Plexera Bioscience, Seattle, WA, US). Collimated light (660 nm) passes through the coupling prism, reflects off the SPR-active gold surface, and is received by the CCD camera. Buffers and samples were injected by a non-pulsatile piston pump into the 30 μL flowcell that was mounted on the coupling prim.

EC50 (read off the curve) [1]: ~0.06 µg/mL
Kd [2]: 630 nM
koff [2]: 0.00179 s⁻¹
kon [2]: 2840 M⁻¹ s⁻¹
B1: NB.PSelscFv-Crry (anti-pselectin 2.3scFv-Crry, non-blocking) (scFv)
chain: QIQLVLSGPELKKPGESVKISCKASGYTFTTYGMSWVKQAPGKGLKWMGWINTSSGVPTYADDFKGRFAFSLETSASTAYLQINNLKNEDTATYFCARGGGYYGAYYFYYWGQGTTLTVSSGGGGSGGGGSGGGGSDIQMTQSPASLSASVGETVTITCRTSDNINSYLAWYLQRQGKSPQLLVYNAKTLTEGVPSRFSGSGSGTQFSLKINSLQPEDFGSYYCQHHYGPPPTFGGGTKLEIKGGGGSGGGGSCPAPSQLPSAKPINLTDESMFPIGTYLLYECLPGYIKRQFSITCKQDSTWTSAEDKCIRKQCKTPSDPENGLVHVHTGIQFGSRINYTCNQGYRLIGSSSAVCVITDQSVDWDTEAPICEWIPCEIPPGIPNGDFFSSTREDFHYGMVVTYRCNTDARGKALFNLVGEPSLYCTSNDGEIGVWSGPPPQCIELNKCTPPPYVENAVMLSENRSLFSLRDIVEFRCHPGFIMKGASSVHCQSLNKWEPELPSCFKGVICRLPQEMSGFQKGLGMKKEYYYGENVTLECEDGYTLEGSSQSQCQSDGSWNPLLAKCVSRSIIEGRHHHHHH
notes: also called Psel.NB; Psel-NB

— patent US20240018247A1 (MUSC FOUNDATION FOR RESEARCH DEVELOPMENT, published 2024)
